# Experimental data reported in patent US20230235058A1 (OXFORD UNIVERSITY INNOVATION, published 2023).
# B1: 11.5.1 (antibody, V domains shown)
# VH: EVQLQESGPSLVKPSQTLSLTCSVTGDSITSAYWNWIRKFPGNKLEYMGYISYSGSTYFNPSLKSRISITRNTSKNQYYLQLNSVTTEDTATYYCARSHYYGYYFDYWGHGTTLTVSS
# VL: DIVLTQSPASLAVSLGQRATISCRASETIDSYGDSLMHWYQQKAGQPPKLLIYRASNLESGIPARFSGSGSRTDFTLTINPVEADDVATYYCQQTDEDPYTFGGGTKLEIK
# notes: mouse IgG1k hybridoma antibody
# B2: 2.8.6 (antibody, V domains shown)
# VH: QVQLKESGPGLVAPSQSLSITCTVSGFSLTTYGVHWVRQSPGKGLEWLGVMWPGGRTSYNPAPMSRLSISKDNSKSQVFLKMNSLQTDDTAMYYCVRGDYEYDYYAMDYWGQGTSVTVSS
# VL: QIVLSQSPAILSASPGEKVTMTCRASSSVSYMHWYQQKPGSSPKPWIYATSNLASGVPARFSGSGSGTSYSLTISRMEAEDAATYYCHQWSSNPYTFGGGTKLEIK
# notes: mouse IgG1k hybridoma antibody; also called clone 2.8.6
# Legend:
# [1] = molecular target: chimeric BTLA of humanised-BTLA mice (human extracellular region, murine transmembrane and signaling … (human; mouse, UniProt Q7TSA3 184-306, limits assumed); test: cell-based or functional assay
# N65R = molecular target: T1, N65R (Mus musculus); test: flow cytometry, GFP-positive transfected HEK-293T cells, fluorochrome-conjugated antibody at 10 ug/ml, Geo-mean relative to wild type;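 note: cells express mutant human BTLA ectodomain fused to murine CD28 transmembrane and cytoplasmic parts, stained 48 h after transfection for 1 h at 4 °C alongside a Live/Dead dye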
# T1 construct: transmembrane and intracellular regions; also called BTLA N65R construct
# Method: (§1) Constructs encoding the human extracellular region of BTLA with the transmembrane and intracellular regions of murine CD28 were cloned into the bi-cistronic mammalian expression vector pGFP2-n2 (BioSignal Packard Ltd), which also encodes GFP. […] Mock and no-transfection controls were included with each experiment. Cells were harvested at 48 hours and stained with fluorochrome-conjugated anti-BTLA antibody at 10 μg/ml, alongside a Live/Dead marker, in PBS, 0.05% azide, 2% FCS (FACS buffer) for 1 h at 4° C. Cells were washed, pelleted and resuspended in 200 μl FACS buffer before being analysed on a BD FACSCanto flow cytometer. […] For each mutant the Geo-mean of anti-BTLA antibody binding to transfected cells was expressed as a percentage of binding to the wild-type receptor (FIG. 3b). A panel of anti-BTLA antibodies was assessed and any mutation that eliminated binding of all antibodies was excluded from the analysis, on the assumption that such mutations lead to drastic changes in protein folding or expression rather than indicating an antibody epitope.
# T78R = molecular target: T2, T78R (Mus musculus); test: as above
# T2 construct: transmembrane and intracellular regions; also called BTLA T78R construct
# Method: as §1
# V80R = molecular target: T3, V80R (Mus musculus); test: as above
# T3 construct: transmembrane and intracellular regions; also called BTLA V80R construct
# Method: as §1
# D35R = molecular target: T4, D35R (Mus musculus); test: as above
# T4 construct: transmembrane and intracellular regions; also called BTLA D35R construct
# Method: as §1
# E103R = molecular target: T5, E103R (Mus musculus); test: as above
# T5 construct: transmembrane and intracellular regions; also called BTLA E103R construct
# Method: as §1
# N108R = molecular target: T6, N108R (Mus musculus); test: as above
# T6 construct: transmembrane and intracellular regions; also called BTLA N108R construct
# Method: as §1
# K137E = molecular target: T7, K137E (Mus musculus); test: as above
# T7 construct: transmembrane and intracellular regions; also called BTLA K137E construct
# Method: as §1
# R42E = molecular target: T8, R42E (Mus musculus); test: as above
# T8 construct: transmembrane and intracellular regions; also called BTLA R42E construct
# Method: as §1
# S47R = molecular target: T9, S47R (Mus musculus); test: as above
# T9 construct: transmembrane and intracellular regions; also called BTLA S47R construct
# Method: as §1
# P53R = molecular target: T10, P53R (Mus musculus); test: as above
# T10 construct: transmembrane and intracellular regions; also called BTLA P53R construct
# T10 sequence (Q7Z6A9 31-151 P53R): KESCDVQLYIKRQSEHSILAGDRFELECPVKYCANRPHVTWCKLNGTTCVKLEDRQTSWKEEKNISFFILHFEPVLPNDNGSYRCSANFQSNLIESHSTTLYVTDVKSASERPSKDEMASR
# Method: as §1
# chimeric BTLA of humanised-BTLA mice (human extracellular region, murine transmembrane and signaling …, sequence (Q7TSA3 other isoform, or with tags, fused parts or gaps mutant limits assumed): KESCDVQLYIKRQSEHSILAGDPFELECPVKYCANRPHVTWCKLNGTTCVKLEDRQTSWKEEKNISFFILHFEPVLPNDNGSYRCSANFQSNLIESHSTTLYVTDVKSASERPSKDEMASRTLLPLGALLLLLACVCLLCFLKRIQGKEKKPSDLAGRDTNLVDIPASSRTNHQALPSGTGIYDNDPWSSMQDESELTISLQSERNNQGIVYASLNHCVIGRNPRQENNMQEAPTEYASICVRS
# T6 sequence (Q7Z6A9 31-151 N108R): as the sequence (Q7Z6A9 31-151 P53R) above, with R23P, N78R counted along it
# T4 sequence (Q7Z6A9 31-151 D35R): as the sequence (Q7Z6A9 31-151 P53R) above, with D5R, R23P counted along it
# T9 sequence (Q7Z6A9 31-151 S47R): as the sequence (Q7Z6A9 31-151 P53R) above, with S17R, R23P counted along it
# T7 sequence (Q7Z6A9 31-151 K137E): as the sequence (Q7Z6A9 31-151 P53R) above, with R23P, K107E counted along it
# T5 sequence (Q7Z6A9 31-151 E103R): as the sequence (Q7Z6A9 31-151 P53R) above, with R23P, E73R counted along it
# T2 sequence (Q7Z6A9 31-151 T78R): as the sequence (Q7Z6A9 31-151 P53R) above, with R23P, T48R counted along it
Binder,AntiCD3/CD28 (CD4 T cell proliferation) repeat 1 [1] [% inhibition],AntiCD3/CD28 (CD4 T cell proliferation) repeat 2 [1] [% inhibition],AntiCD3/CD28 (CD69+ CD4 T cells) repeat 1 [1] [% inhibition],AntiCD3/CD28 (CD69+ CD4 T cells) repeat 2 [1] [% inhibition],MLR (CD4 T cell proliferation) repeat 1 [1] [% inhibition],MLR (CD4 T cell proliferation) repeat 2 [1] [% inhibition],binding as % of binding to wild-type BTLA (N65R) [%],binding as % of binding to wild-type BTLA (T78R) [%],binding as % of binding to wild-type BTLA (V80R) [%],binding as % of binding to wild-type BTLA (D35R) [%],binding as % of binding to wild-type BTLA (E103R) [%],binding as % of binding to wild-type BTLA (N108R) [%],binding as % of binding to wild-type BTLA (K137E) [%],binding as % of binding to wild-type BTLA (R42E) [%],binding as % of binding to wild-type BTLA (S47R) [%],binding as % of binding to wild-type BTLA (P53R) [%]
B1,21,28,50,47,23,18,87.9,109,39.9,71.2,213,171,55.6,72.3,108,117
B2,23,35,58,67,30,36,89,95.3,71.6,83.7,79,107,80.1,111,99.7,55.6
